Test results published in IntAct's records for PubMed 23612611.

B1: E3 ubiquitin-protein ligase CHIP (Mus musculus), Q9WUD1 (parent)
chain: MKGKEEKEGGARLGTGGGGSPDKSPSAQELKEQGNRLFVGRKYPEAAACYGRAITRNPLVAVYYTNRALCYLKMQQPEQALADCRRALELDGQSVKAHFFLGQCQLEMESYDEAIANLQRAYSLAKEQRLNFGDDIPSALRIAKKKRWNSIEERRIHQESELHSYLTRLIAAERERELEECQRNHEGHEDDGHIRAQQACIEAKHDKYMADMDELFSQVDEKRKKRDIPDYLCGKISFELMREPCITPSGITYDRKDIEEHLQRVGHFDPVTRSPLTQEQLIPNLAMKEVIDAFISENGWVEDY
partner: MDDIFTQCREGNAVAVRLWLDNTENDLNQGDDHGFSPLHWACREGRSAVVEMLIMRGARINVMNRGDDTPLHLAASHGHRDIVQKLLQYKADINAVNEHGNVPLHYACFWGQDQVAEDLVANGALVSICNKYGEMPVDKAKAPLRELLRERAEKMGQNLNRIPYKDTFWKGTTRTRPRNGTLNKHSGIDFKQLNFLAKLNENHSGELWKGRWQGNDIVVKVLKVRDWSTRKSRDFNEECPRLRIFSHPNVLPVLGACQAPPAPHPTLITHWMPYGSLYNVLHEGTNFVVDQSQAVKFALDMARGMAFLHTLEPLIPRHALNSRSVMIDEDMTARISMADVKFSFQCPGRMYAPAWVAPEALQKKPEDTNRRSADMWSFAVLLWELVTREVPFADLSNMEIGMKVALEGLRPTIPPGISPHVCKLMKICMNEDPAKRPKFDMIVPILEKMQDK

Variants of: B1
Details: with ilk_mouse Ilk

Row | effect of a mutation on the interaction | Variant
1 | decreasing interaction | K31A
